Measurements as given in PMC4004541, “PEG-Like Nanoprobes: Multimodal, Pharmacokinetically and Optically Tunable Nanomaterials” (PLoS ONE, 2014).

Legend:
[1] = parameters: method as in manufacturer's package insert; details: humans; ref manufacturer's package insert; cited from earlier work
[2] = Size by dynamic light scattering; type: physicochemical; details: Nano-ZS Zetasizer, z-average
From the text: (§1) FPLC chromatograms are shown for PN’s bearing the IR-783 fluorochrome with PEG’s ranging from 2 to 40 kDa ( Figure 2A ). FPLC was calibrated with globular protein standards, and globular protein equivalent molecular volumes (in kDa) were obtained ( Table 1 , column 5). Next, these globular protein equivalent molecular volumes were converted to PN diameters in nm using the relationship: [drawing 1] where M is the molecular weight of a globular protein expressed in daltons. PN diameters ranged from 3.0 to 11.7 nm, which means PN’s can be smaller or larger than albumin (MW = 67 kDa; diameter = 5.4 nm, by the formula above). Thus Table 1 column 5 gives the PN volumes obtained from FPLC expressed in two ways: (i) as the molecular weight in kDa of globular proteins with equivalent volumes, permitting size comparison of PN’s to proteins, and, (ii) as spherical diameters (“Dia.”) in nm, permitting size comparisons of a PN to relative to other nanomaterials. We confirmed the sizes obtained with FPLC by measuring the size of PN(783)11.7 by dynamic light scattering (11.7 nm).
Size by dynamic light scattering: Size was obtained on a Nano-ZS Zetasizer (Malvern, Medford, MA) and is expressed as the z-average.

[3] = Probe size (volume) by FPLC calibrated with globular protein standards; type: physicochemical
From the text: as §1
The mass spec of low molecular weight (MW) materials were obtained by MS-ESI Micromass (Waters) and high MW molecules were determined through MALDI-TOF analyses at the Tufts University Core Facility. RP-HPLC (Varian ProStar detector and delivery modules) employed an eluant A (0.1% TFA/water) and eluant B (0.1% TFA and 9.9% water in acetonitrile). Probe size (volume) was determined by FPLC using an ÄKTA Purifier 10 and SuperdexTM 200 10/300GL column (GE Healthcare) with a running buffer of 0.05 M sodium phosphate, 0.1 M NaCl (0.1% Tween, pH 7.2) and flow rate of 0.8 ml/min. Standards (GE Healthcare) were Ferritin, Ribonuclease A, Carbonic Anhydrase, and Conalbumin and Blue Dextran 2000. To obtain probe volumes, Mr (apparent molecular weight based on size exclusion retention) was plotted versus Kav. [drawing 7] , Vt = total volume, Ve = elution volume, Vo = void volume.
PN and peptide characterization: The mass spec of low molecular weights (MW) were obtained by MS-ESI Micromass (Waters) and high MW molecules were determined through MALDI-TOF analyses at the Tufts University Core Facility. RP-HPLC (Varian ProStar detector and delivery modules) employed an eluant A (0.1% TFA /water) and eluant B (0.1% TFA and 9.9% water in acetonitrile). […] Standards (GE Healthcare) were Ferritin, Ribonuclease A, Carbonic Anhydrase, and Conalbumin and Blue Dextran 2000. To obtain probe volumes, Mr (apparent molecular weight based on size exclusion retention) was plotted versus Kav. [picture] , Vt = total volume, Ve = elution volume, Vo = void volume.

HT-29 cells = test: Non-specific binding (NSB) to HT-29 cells by FACS; type: cell-based, human; details: 100 μL of nanoprobes (2 μM) added to 100 μl 2% FBS/DPBS, 30 min at 37 °C, means±1 S.D.
From the text: We next examined the non-specific binding (NSB) of PN’s to HT-29 cells based on the assumption that NSB minimization will correlate with a desirable minimization of post-IV injection retention. As noted above, after diagnostic drugs generate their added information, retention can only increase the risks of delayed toxicity. The attachment of PEG decreased the non-specific binding (NSB) to HT-29 cells, scored as the percent of cells above the cutoff for unstained cells seen with FACS ( Table 1 , column 7).
PN and peptide binding to cells (effect of PEGylation on NSB): HT-29, a human colon carcinoma cell line, was from the American Tissue Culture Collection and maintained according to their instructions. Cells were seeded on 24-well plates at 5X10^5 cells/well in culture medium (RPMI 1640 with 10% FBS) the day before the assay. The day of assay, medium was removed, wells rinsed twice with DPBS (+Ca, +Mg), and 100 μl of 2% FBS / DPBS (+Ca, +Mg) added. 100 μL of Nanoprobes (2 μM) in DPBS (+Ca, +Mg) was added to cells and incubated for 30min at 37 °C. (Probe concentrations were determined spectrophotometrically (783 nm, extinction coefficient of 314 471 cm^-1 M^-1 for IR-783; 497 nm, extinction coefficient of 68 000 cm^-1 M^-1 for Fluorescein; 545 nm, extinction coefficient of 150 000 cm^-1 M^-1 for Cy3). Cells were detached by Trypsin/EDTA and assayed for fluorescence by FACS (BD 7 laser LSR2 for nanoprobes with IR-783; BD 3 laser LSR2 for nanoprobes with Fluorescein or Cy3).
Figure S4: Effect of PEGylation on non-specific binding to cells by single channel FACS. […] Arrows indicates the cutoff for unstained cells.

[4] = Quantum yield of fluorochrome-bearing peptides and PN's; type: physicochemical; details: means±1 S.D.
From the text: (The p values showing significances are in Figure S2 in File S1). […] PEG attachment increased quantum yields in all cases, but as discussed below the magnitude of PEG generated improvement varied with the fluorochrome chosen. A mechanism for the PEG improvement of quantum yield is fluorochrome shielding, or the blocking of fluorochrome-fluorochrome interactions that result in quenching.
However, the magnitude of these benefits varied with the fluorochrome selected. […] Previous studies indicated PEGylated, fluorochrome-bearing peptides have absorption spectra in PBS similar to their unstacked absorption spectra in methanol. […] It appears that longer wavelength fluorochromes have stronger fluorochrome/fluorochrome stacking interactions, which result in more quenching, which is blocked by PEG and which gives rise to larger increases in quantum yield.

Compound	Blood half-life [1] [min]	Size by dynamic light scattering [2] [nm]	Volume FPLC, globular protein equivalent molecular volume ([3]; FPLC, Superdex 200 10/300GL, 0.05 M sodium phosphate, 0.1 M NaCl (0.1% Tween, pH 7.2), 0.8 ml/min, calibrated with globular protein standards) [kDa]	Volume FPLC Dia. (diameter) ([3]; globular protein equivalent volume from FPLC converted to spherical diameter by formula (ref 15)) [nm]	Cell NSB: percent of HT-29 cells above the cutoff for unstained cells (HT-29 cells) [%]	Quant. Yield [4]
CC1(C)C(/C=C/C=C/C=C/C=C2\N(CCCCS(=O)(=O)O)c3ccc4ccccc4c3C2(C)C)=[N+](CCCCS(=O)(=O)[O-])c2ccc3ccccc3c21 [ICG, indocyanine green]	2.5 to 3	–	–	–	–	–
(DOTA)Lys(PEG40 kDa)-Cys(IR-783) [PN(783)11.7, PEG-like Nanoprobe: 40 kDa PEG, IR-783 fluorochrome, DOTA peptide]	–	11.7	690	11.7	17±1	0.16±0.02
